In patent US20260207767A1 (ANAVEON, published 2026):

What was measured:
[1] = target: T1, recombinant hPD-1 (construct not stated) (human, UniProt Q15116 25-167, limits assumed); assay: ELISA
T1 construct: also called huPD-1; Human PD1

[2] = target: T2, recombinant cynoPD-1 (construct not stated) (cynomolgus monkey, UniProt B0LAJ3 25-170); assay: ELISA
T2 construct: not shown: probably His as elsewhere

[3] = target: T3, human PD-1 expressed on cells (human, UniProt Q15116 25-288); assay: flow cytometry, CHO-S hPD-1
T3 construct: whole, on cells; cell line named under assay; also called CHO-S hPD-1; Raji PD-1

[4] = target: T4, hPD-1 Avi-Tag Biotin (AcroBiosystems PD1-H82E4) (human, UniProt Q15116 25-167, biotin on Avi-Tag); assay: SPR, Ab captured, PD-1 analyte
T4 construct: bought; also called human PD-1
Protocol: Anti-human Fc IgG (Jackson) was immobilized on amine reactive CM5 chips (GE Healthcare) using 1×HBS-EP+ running buffer (GE Healthcare). The test antibodies were captured at flow rate 10 μl/min with 30 s contact time. […] Regeneration was carried out with 10 mM Glycine-HCl, pH 1.5 at flow rate 10 μL/min. This protocol is to be used, unless stated otherwise, in determination of Kd wherever used to define the KD of antibodies specified herein, with adaptions where necessary with regard to the nature of the interaction partners. […]

[5] = target: T5, cynomolgus PD-1 expressed on cells (cynomolgus monkey, UniProt B0LAJ3 25-288); assay: flow cytometry, CHO-S Cyno-PD-1
T5 construct: also called CHO-S Cyno-PD-1; 293:cyPD1

[6] = target: T6, cynoPD-1 His (AcroBiosystems PD1-C5223) (cynomolgus monkey, UniProt B0LAJ3 25-170); assay: SPR; second ka column, taken as cynoPD-1
T6 construct: also called cPD-1; cynomolgus PD-1 His-tagged
Protocol: Anti-human Fc IgG (Jackson) was immobilized on amine reactive CM5 chips (GE Healthcare) using 1×HBS-EP+ running buffer (GE Healthcare). The test antibodies were captured at flow rate 10 μl/min with 30 s contact time. […] Regeneration was carried out with 10 mM Glycine-HCl, pH 1.5 at flow rate 10 μL/min. This protocol is to be used, unless stated otherwise, in determination of Kd wherever used to define the KD of antibodies specified herein, with adaptions where necessary with regard to the nature of the interaction partners.
Every position in the antibody VH and VL-CDRs was mutated by PCR using a mutagenic primer containing a degenerate codon NNS at a specific CDR position, introducing a combination of all 20 amino acids. The library of single mutants was screened by scFv capture ELISA using a redundancy factor of 4 (on 96-well plate er position). Clones displaying ≥2× ELISA signal compared to the wild-type scFv were sequenced, and clones with unique sequences were re-grown, re-screened by capture ELISA and ranked by dose-dependent ELISA on human and cyno antigens, and by FACS using human antigen expressing cells. Affinity improving mutations were used to design a combinatorial library using the Kunkel method. The library was screened by scFv capture ELISA using the redundancy factor of 4 (4× number of combinations). Clones displaying ≥2× ELISA signal compared to the wild-type scFv were sequenced, and clones with unique sequences were re-grown, re-screened by capture ELISA and ranked by dose-dependent ELISA on human and cyno antigens, and by FACS using human antigen expressing cells.

[7] = target: T3, human PD-1 expressed on cells; assay: cell-based or functional assay
[8] = target: T7, IL-2R CD122-CD132 on Jurkat-PD1+CD122+ cells (UniProt P14784 27-551; P31785 23-369); assay: cell-based or functional assay
T7 sequence (looked up) 1: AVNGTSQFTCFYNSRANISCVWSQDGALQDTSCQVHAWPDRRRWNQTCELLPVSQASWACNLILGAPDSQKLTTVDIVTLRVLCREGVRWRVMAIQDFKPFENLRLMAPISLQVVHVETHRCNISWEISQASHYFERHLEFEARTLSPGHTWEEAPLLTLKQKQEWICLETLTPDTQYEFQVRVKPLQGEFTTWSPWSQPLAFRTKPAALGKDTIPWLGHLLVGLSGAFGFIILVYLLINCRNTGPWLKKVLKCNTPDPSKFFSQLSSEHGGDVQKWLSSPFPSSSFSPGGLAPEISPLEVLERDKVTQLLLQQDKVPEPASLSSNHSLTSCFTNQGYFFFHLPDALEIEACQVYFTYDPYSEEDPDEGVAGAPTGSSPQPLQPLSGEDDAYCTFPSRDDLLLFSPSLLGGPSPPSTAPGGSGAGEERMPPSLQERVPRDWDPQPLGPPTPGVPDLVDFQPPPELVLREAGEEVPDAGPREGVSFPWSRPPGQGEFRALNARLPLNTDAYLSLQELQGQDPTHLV
T7 sequence (looked up) 2: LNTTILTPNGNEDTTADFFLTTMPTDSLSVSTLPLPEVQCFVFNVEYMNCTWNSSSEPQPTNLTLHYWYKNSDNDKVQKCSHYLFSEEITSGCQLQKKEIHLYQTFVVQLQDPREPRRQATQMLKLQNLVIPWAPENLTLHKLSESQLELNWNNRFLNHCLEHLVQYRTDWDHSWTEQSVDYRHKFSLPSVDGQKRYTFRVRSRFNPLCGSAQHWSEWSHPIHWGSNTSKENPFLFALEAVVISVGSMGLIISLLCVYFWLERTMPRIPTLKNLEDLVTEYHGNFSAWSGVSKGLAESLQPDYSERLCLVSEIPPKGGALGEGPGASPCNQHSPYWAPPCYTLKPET

T2 sequence (B0LAJ3 entry or part of it limits assumed): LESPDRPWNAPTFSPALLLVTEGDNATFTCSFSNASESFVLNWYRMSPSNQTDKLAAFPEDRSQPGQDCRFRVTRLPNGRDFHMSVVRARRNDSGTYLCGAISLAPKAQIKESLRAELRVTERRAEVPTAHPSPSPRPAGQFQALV
T3 sequence (Q15116 25-288): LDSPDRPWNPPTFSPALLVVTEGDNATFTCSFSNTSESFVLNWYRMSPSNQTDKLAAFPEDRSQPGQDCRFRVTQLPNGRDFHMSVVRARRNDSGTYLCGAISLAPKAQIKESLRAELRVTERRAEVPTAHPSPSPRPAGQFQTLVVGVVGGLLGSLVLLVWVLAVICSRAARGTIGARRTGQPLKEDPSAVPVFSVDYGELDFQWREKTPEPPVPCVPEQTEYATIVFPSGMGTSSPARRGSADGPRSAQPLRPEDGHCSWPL
T4 sequence (Q15116 25-167 limits assumed): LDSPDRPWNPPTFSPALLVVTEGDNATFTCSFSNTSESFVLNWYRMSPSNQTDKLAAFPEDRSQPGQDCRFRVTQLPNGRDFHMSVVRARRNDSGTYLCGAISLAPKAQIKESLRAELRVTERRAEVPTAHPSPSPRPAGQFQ
T1 sequence (Q15116 25-167 limits assumed): as above
T5 sequence (B0LAJ3 entry or part of it limits assumed): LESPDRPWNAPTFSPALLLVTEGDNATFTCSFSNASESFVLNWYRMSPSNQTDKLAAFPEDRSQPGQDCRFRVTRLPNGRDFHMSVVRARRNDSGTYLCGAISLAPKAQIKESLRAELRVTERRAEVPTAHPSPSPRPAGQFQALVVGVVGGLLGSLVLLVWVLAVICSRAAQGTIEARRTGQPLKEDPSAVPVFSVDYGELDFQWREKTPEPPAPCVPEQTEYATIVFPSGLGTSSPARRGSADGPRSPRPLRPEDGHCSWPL

B1: XVT458-z2-m4 (antibody, V domains shown)
VH: QVQLVQSGAEVKKPGASVKVSCKASGYTFTNFYIHWVRQAPGQGLEWMGRIYPNYGITAYNQKFKDRVTMTVDTSTSTAYMELRSLRSDDTAVYYCARGYSYAMDYWGQGTTVTVSS
VL: DIQMTQSPSSVSASVGDRVTITCSASQGISGDLNWYQQKPGKAPKLLIYHTSSRHSGVPSRFSGSGSGTDFTLTISSLQPEDFATYYCQGYSKDLLTFGGGTKLEIK
notes: IgG format; also called z2_XVT458m4
- EC50 [1]: 0.079 nM
- Max OD [1]: 3.3 OD
- EC50 [2]: 0.098 nM
- Max OD [2]: 3.54 OD
- EC50 [3]: 0.96 nM
- Max MFI [3]: 43400 MFI
- Kd [4]: 1.22 nM
- koff [4]: 0.000173 s⁻¹
- kon [4]: 142000 M⁻¹ s⁻¹
- Max MFI [5]: 258 MFI
- kon [6]: 134000 M⁻¹ s⁻¹

B2: XVT458-z2-m3 (antibody, V domains shown)
VH: QVQLVQSGAEVKKPGASVKVSCKASGYTFTNFYIHWVRQAPGQGLEWMGRIYPNYGITAYNQKFKDRVTMTVDTSTSTAYMELRSLRSDDTAVYYCARGYSYAMDYWGQGTTVTVSS
VL: DIQMTQSPSSVSASVGDRVTITCSASQGISGDLNWYQQKPGKAPKLLIYHTSQRHSDVPSRFSGSGSGTDFTLTISSLQPEDFATYYCQGYSKDLLTFGGGTKLEIK
notes: IgG format; also called z2_XVT458m3
- EC50 [1]: 0.089 nM
- Max OD [1]: 3.37 OD
- EC50 [2]: 0.094 nM
- Max OD [2]: 3.54 OD
- EC50 [3]: 1.34 nM
- Max MFI [3]: 41100 MFI
- Kd [4]: 0.417 nM
- koff [4]: 6.57e-05 s⁻¹
- kon [4]: 158000 M⁻¹ s⁻¹
- Max MFI [5]: 124 MFI
- kon [6]: 138000 M⁻¹ s⁻¹

B3: NZA596 (bispecific antibody, human IgG1, kappa, lambda, L234A L235A)
heavy 1: EVQLLESGGGLVQPGGSLRLSCAASGFTFSINAMTWVRQAPGKGLEWVSTISGSGFSTYYADSLKGRFTISRDNSKNTLYLQMNSLRAEDTAVYYCAKEVYGDYWGQGTLVTVSSASTKGPSVFPLAPSSKSTSGGTAALGCLVKDYFPEPVTVSWNSGALTSGVHTFPAVLQSSGLYSLSSVVTVPSSSLGTQTYICNVNHKPSNTKVDKRVEPKSCDKTHTCPPCPAPEAAGGPSVFLFPPKPKDTLMISRTPEVTCVVVDVSHEDPEVKFNWYVDGVEVHNAKTKPREEQYNSTYRVVSVLTVLHQDWLNGKEYKCKVSNKALAAPIEKTISKAKGQPREPQVCTLPPSREEMTKNQVSLSCAVKGFYPSDIAVEWESNGQPENNYKTTPPVLDSDGSFFLVSKLTVDKSRWQQGNVFSCSVMHEALHNHYTQKSLSLSPGK
light 1: not shown
heavy 2: EVQLVQSGAEVKKPGESLKISCKGSGYAFTNYLIEWVRQMPGKGLEWMGVINPGSGGTNYNEKFKGQVTISADKSISTAYLQWSSLKASDTAMYYCARWRGEGYYAYFDVWGQGTTVTVSSASTKGPSVFPLAPSSKSTSGGTAALGCLVKDYFPEPVTVSWNSGALTSGVHTFPAVLQSSGLYSLSSVVTVPSSSLGTQTYICNVNHKPSNTKVDKRVEPKSCDKTHTCPPCPAPEAAGGPSVFLFPPKPKDTLMISRTPEVTCVVVDVSHEDPEVKFNWYVDGVEVHNAKTKPREEQYNSTYRVVSVLTVLHQDWLNGKEYKCKVSNKALAAPIEKTISKAKGQPREPQVYTLPPCREEMTKNQVSLWCLVKGFYPSDIAVEWESNGQPENNYKTTPPVLDSDGSFFLYSKLTVDKSRWQQGNVFSCSVMHEALHNHYTQKSLSLSPGK
light 2: not shown
- EC50 of NZA596, % pSTAT5+ Jurkat PD-1+CD122+ cells, pre-incubation with Medium [7]: 0.85 nM
- EC50 of NZA596, pre-incubation with 21A08Ap1 [7]: 15.6 nM
- EC50 of NZA596, pre-incubation with Cemiplimab [7]: 1.67 nM
- EC50 of NZA596, pre-incubation with Cetrelimab [7]: 0.76 nM
- EC50 of NZA596, pre-incubation with Dostarlimab (m102) [7]: 0.96 nM
- EC50 of NZA596, pre-incubation with Ezabenlimab [7]: 1.71 nM
- EC50 of NZA596, pre-incubation with Nivolumab [7]: 1.1 nM
- EC50 of NZA596, pre-incubation with Pembrolizumab [7]: 1.02 nM
- EC50 of NZA596, pre-incubation with Tislelizumab [7]: 1.47 nM
- EC50 of NZA596, pre-incubation with Toripalimab [7]: 0.65 nM
- EC50 of NZA596, pre-incubation with Zeluvalimab [7]: 0.88 nM
- fold reduction in NZA596 Potency, pre-incubation with 21A08Ap1 [7]: 18.2 fold
- fold reduction in NZA596 Potency, pre-incubation with Cemiplimab [7]: 1.95 fold
- fold reduction in NZA596 Potency, pre-incubation with Cetrelimab [7]: 0.89 fold
- fold reduction in NZA596 Potency, pre-incubation with Dostarlimab (m102) [7]: 1.12 fold
- fold reduction in NZA596 Potency, pre-incubation with Ezabenlimab [7]: 2 fold
- fold reduction in NZA596 Potency, pre-incubation with Nivolumab [7]: 1.28 fold
- fold reduction in NZA596 Potency, pre-incubation with Pembrolizumab [7]: 1.2 fold
- fold reduction in NZA596 Potency, pre-incubation with Tislelizumab [7]: 1.72 fold
- fold reduction in NZA596 Potency, pre-incubation with Toripalimab [7]: 0.77 fold
- fold reduction in NZA596 Potency, pre-incubation with Zeluvalimab [7]: 1.03 fold
- EC50 (read off the curve), % pSTAT5+ of CFSE+ cells pre-blocked with Nivolumab [panel CFSE+ cells] [8]: ~0.9 nM
- EC50 (read off the curve), % pSTAT5+ of CFSE+ cells pre-blocked with Pembrolizumab [panel CFSE+ cells] [8]: ~0.9 nM
- EC50 (read off the curve), % pSTAT5+ of CFSE+ cells; No blocking [panel CFSE+ cells] [8]: ~0.6 nM
- EC50 (read off the curve), % pSTAT5+ of CTV+ cells; No blocking [panel CTV+ cells] [8]: ~0.5 nM
- EC50 (read off the curve), % pSTAT5+ of CTV+ cells; mixed with CFSE+ cells pre-blocked with Nivolumab [panel CTV+ cells] [8]: ~0.6 nM
- EC50 (read off the curve), % pSTAT5+ of CTV+ cells; mixed with CFSE+ cells pre-blocked with Parental mAb [panel CTV+ cells] [8]: ~0.6 nM
- EC50 (read off the curve), % pSTAT5+ of CTV+ cells; mixed with CFSE+ cells pre-blocked with Pembrolizumab [panel CTV+ cells] [8]: ~0.6 nM
